Measurements published in patent US12630600B2 (MEDIMMUNE LIMITED, priority 2022, dated 2026).
Starred links: 1 amine or outer side, 2 acyl side, 3 side chain; linkers in the order of their positions; H or OH if unused. Non-standard residues stand in square brackets, D forms with d. Groups on a side chain read outwards from the residue. No end group written: not given here. *: point of attachment. C20 diacid = O=C(O)CCCCCCCCCCCCCCCCCCC(=O)*; C18 diacid = O=C(O)CCCCCCCCCCCCCCCCC(=O)*; γGlu = O=C(O)[C@H](CCC(=O)[*:2])N[*:1]; αMeF = C[C@](N)(Cc1ccccc1)C(=O)O; AEEA = NCCOCCOCC(=O)O; Aib = CC(C)(N)C(=O)O

How the values were obtained:
Assay in all cases: cell-based or functional assay
human GLP-1 receptor [1] = molecular target: human GLP-1 receptor (human, UniProt P43220)
human glucagon receptor [2] = molecular target: human glucagon receptor (human, UniProt P47871)
human glucagon receptor [3] = molecular target: human glucagon receptor (human, UniProt P47871); remark: listed apart in the source
human GLP-1 receptor [4] = molecular target: human GLP-1 receptor (human, UniProt P43220); remark: listed apart in the source

Binder	cAMP production, hGLP-1R EC50 (pM) (human GLP-1 receptor [1])	cAMP production, hGluc-R EC50 (pM) (human glucagon receptor [2])	cAMP production EC50 (human glucagon receptor [3]) [nM]	cAMP production EC50 (human GLP-1 receptor [4]) [nM]
H[Aib]HGS[αMeF]TSDVSK[αMeF]LDSK([AEEA-AEEA-γGlu-γGlu-C18 diacid])AARD[αMeF]VE[Aib]IANT-NH2 (N-terminus assumed; SMILES CC[C@H](C)[C@H](NC(=O)C(C)(C)NC(=O)[C@H](CCC(=O)O)NC(=O)[C@@H](NC(=O)[C@](C)(Cc1ccccc1)NC(=O)[C@H](CC(=O)O)NC(=O)[C@H](CCCNC(=N)N)NC(=O)[C@H](C)NC(=O)[C@H](C)NC(=O)[C@H](CCCCNC(=O)COCCOCCNC(=O)COCCOCCNC(=O)CC[C@H](NC(=O)CC[C@H](NC(=O)CCCCCCCCCCCCCCCCC(=O)O)C(=O)O)C(=O)O)NC(=O)[C@H](CO)NC(=O)[C@H](CC(=O)O)NC(=O)[C@H](CC(C)C)NC(=O)[C@](C)(Cc1ccccc1)NC(=O)[C@H](CCCCN)NC(=O)[C@H](CO)NC(=O)[C@@H](NC(=O)[C@H](CC(=O)O)NC(=O)[C@H](CO)NC(=O)[C@@H](NC(=O)[C@](C)(Cc1ccccc1)NC(=O)[C@H](CO)NC(=O)CNC(=O)[C@H](Cc1c[nH]cn1)NC(=O)C(C)(C)NC(=O)[C@@H](N)Cc1c[nH]cn1)[C@@H](C)O)C(C)C)C(C)C)C(=O)N[C@@H](C)C(=O)N[C@@H](CC(N)=O)C(=O)N[C@H](C(N)=O)[C@@H](C)O) [Peptide 20]	152	–	–	–
H[Aib]QGTFTSDVSK[αMeF]LDTK([AEEA-AEEA-γGlu-C18 diacid])RAQDFVRWLLE[Aib]G-OH (N-terminus assumed; SMILES CC(C)C[C@H](NC(=O)[C@H](Cc1c[nH]c2ccccc12)NC(=O)[C@H](CCCNC(=N)N)NC(=O)[C@@H](NC(=O)[C@H](Cc1ccccc1)NC(=O)[C@H](CC(=O)O)NC(=O)[C@H](CCC(N)=O)NC(=O)[C@H](C)NC(=O)[C@H](CCCNC(=N)N)NC(=O)[C@H](CCCCNC(=O)COCCOCCNC(=O)COCCOCCNC(=O)CC[C@H](NC(=O)CCCCCCCCCCCCCCCCC(=O)O)C(=O)O)NC(=O)[C@@H](NC(=O)[C@H](CC(=O)O)NC(=O)[C@H](CC(C)C)NC(=O)[C@](C)(Cc1ccccc1)NC(=O)[C@H](CCCCN)NC(=O)[C@H](CO)NC(=O)[C@@H](NC(=O)[C@H](CC(=O)O)NC(=O)[C@H](CO)NC(=O)[C@@H](NC(=O)[C@H](Cc1ccccc1)NC(=O)[C@@H](NC(=O)CNC(=O)[C@H](CCC(N)=O)NC(=O)C(C)(C)NC(=O)[C@@H](N)Cc1c[nH]cn1)[C@@H](C)O)[C@@H](C)O)C(C)C)[C@@H](C)O)C(C)C)C(=O)N[C@@H](CC(C)C)C(=O)N[C@@H](CCC(=O)O)C(=O)NC(C)(C)C(=O)NCC(=O)O) [Peptide 140]	22.7	–	–	–
H[Aib]QGTFTSDVSK[αMeF]LDSK([AEEA-AEEA-γGlu-C18 diacid])RAQDFVRWLL[Aib]TE-OH (N-terminus assumed; SMILES CC(C)C[C@H](NC(=O)[C@H](Cc1c[nH]c2ccccc12)NC(=O)[C@H](CCCNC(=N)N)NC(=O)[C@@H](NC(=O)[C@H](Cc1ccccc1)NC(=O)[C@H](CC(=O)O)NC(=O)[C@H](CCC(N)=O)NC(=O)[C@H](C)NC(=O)[C@H](CCCNC(=N)N)NC(=O)[C@H](CCCCNC(=O)COCCOCCNC(=O)COCCOCCNC(=O)CC[C@H](NC(=O)CCCCCCCCCCCCCCCCC(=O)O)C(=O)O)NC(=O)[C@H](CO)NC(=O)[C@H](CC(=O)O)NC(=O)[C@H](CC(C)C)NC(=O)[C@](C)(Cc1ccccc1)NC(=O)[C@H](CCCCN)NC(=O)[C@H](CO)NC(=O)[C@@H](NC(=O)[C@H](CC(=O)O)NC(=O)[C@H](CO)NC(=O)[C@@H](NC(=O)[C@H](Cc1ccccc1)NC(=O)[C@@H](NC(=O)CNC(=O)[C@H](CCC(N)=O)NC(=O)C(C)(C)NC(=O)[C@@H](N)Cc1c[nH]cn1)[C@@H](C)O)[C@@H](C)O)C(C)C)C(C)C)C(=O)N[C@@H](CC(C)C)C(=O)NC(C)(C)C(=O)N[C@H](C(=O)N[C@@H](CCC(=O)O)C(=O)O)[C@@H](C)O) [Peptide 39]	–	–	0.194	0.0761
HSQGS[αMeF]TSDVSK[αMeF]LDSK([AEEA-AEEA-γGlu-C18 diacid])AAQDFVQWIANT-NH2 (N-terminus assumed; SMILES CC[C@H](C)[C@H](NC(=O)[C@H](Cc1c[nH]c2ccccc12)NC(=O)[C@H](CCC(N)=O)NC(=O)[C@@H](NC(=O)[C@H](Cc1ccccc1)NC(=O)[C@H](CC(=O)O)NC(=O)[C@H](CCC(N)=O)NC(=O)[C@H](C)NC(=O)[C@H](C)NC(=O)[C@H](CCCCNC(=O)COCCOCCNC(=O)COCCOCCNC(=O)CC[C@H](NC(=O)CCCCCCCCCCCCCCCCC(=O)O)C(=O)O)NC(=O)[C@H](CO)NC(=O)[C@H](CC(=O)O)NC(=O)[C@H](CC(C)C)NC(=O)[C@](C)(Cc1ccccc1)NC(=O)[C@H](CCCCN)NC(=O)[C@H](CO)NC(=O)[C@@H](NC(=O)[C@H](CC(=O)O)NC(=O)[C@H](CO)NC(=O)[C@@H](NC(=O)[C@](C)(Cc1ccccc1)NC(=O)[C@H](CO)NC(=O)CNC(=O)[C@H](CCC(N)=O)NC(=O)[C@H](CO)NC(=O)[C@@H](N)Cc1c[nH]cn1)[C@@H](C)O)C(C)C)C(C)C)C(=O)N[C@@H](C)C(=O)N[C@@H](CC(N)=O)C(=O)N[C@H](C(N)=O)[C@@H](C)O) [Peptide 4]	240	1170	–	–
H[Aib]QGTFTSDVSK[αMeF]LDSK([AEEA-AEEA-γGlu-C18 diacid])RAQDFVEWLL[Aib]T-OH (N-terminus assumed; SMILES CC(C)C[C@H](NC(=O)[C@H](Cc1c[nH]c2ccccc12)NC(=O)[C@H](CCC(=O)O)NC(=O)[C@@H](NC(=O)[C@H](Cc1ccccc1)NC(=O)[C@H](CC(=O)O)NC(=O)[C@H](CCC(N)=O)NC(=O)[C@H](C)NC(=O)[C@H](CCCNC(=N)N)NC(=O)[C@H](CCCCNC(=O)COCCOCCNC(=O)COCCOCCNC(=O)CC[C@H](NC(=O)CCCCCCCCCCCCCCCCC(=O)O)C(=O)O)NC(=O)[C@H](CO)NC(=O)[C@H](CC(=O)O)NC(=O)[C@H](CC(C)C)NC(=O)[C@](C)(Cc1ccccc1)NC(=O)[C@H](CCCCN)NC(=O)[C@H](CO)NC(=O)[C@@H](NC(=O)[C@H](CC(=O)O)NC(=O)[C@H](CO)NC(=O)[C@@H](NC(=O)[C@H](Cc1ccccc1)NC(=O)[C@@H](NC(=O)CNC(=O)[C@H](CCC(N)=O)NC(=O)C(C)(C)NC(=O)[C@@H](N)Cc1c[nH]cn1)[C@@H](C)O)[C@@H](C)O)C(C)C)C(C)C)C(=O)N[C@@H](CC(C)C)C(=O)NC(C)(C)C(=O)N[C@H](C(=O)O)[C@@H](C)O) [Peptide 38]	–	–	0.441	0.0756

Other lines, results leading:

cAMP production, hGLP-1R EC50 (pM) (human GLP-1 receptor [1])	cAMP production, hGluc-R EC50 (pM) (human glucagon receptor [2])	cAMP production EC50 (human glucagon receptor [3]) [nM]	cAMP production EC50 (human GLP-1 receptor [4]) [nM]	Binder
11.9	20.4	–	–	H[Aib]QGTFTSDVSK[αMeF]LDSK([AEEA-AEEA-γGlu-C18 diacid])RAQDFVRWLL[Aib]E-OH (N-terminus assumed; SMILES CC(C)C[C@H](NC(=O)[C@H](Cc1c[nH]c2ccccc12)NC(=O)[C@H](CCCNC(=N)N)NC(=O)[C@@H](NC(=O)[C@H](Cc1ccccc1)NC(=O)[C@H](CC(=O)O)NC(=O)[C@H](CCC(N)=O)NC(=O)[C@H](C)NC(=O)[C@H](CCCNC(=N)N)NC(=O)[C@H](CCCCNC(=O)COCCOCCNC(=O)COCCOCCNC(=O)CC[C@H](NC(=O)CCCCCCCCCCCCCCCCC(=O)O)C(=O)O)NC(=O)[C@H](CO)NC(=O)[C@H](CC(=O)O)NC(=O)[C@H](CC(C)C)NC(=O)[C@](C)(Cc1ccccc1)NC(=O)[C@H](CCCCN)NC(=O)[C@H](CO)NC(=O)[C@@H](NC(=O)[C@H](CC(=O)O)NC(=O)[C@H](CO)NC(=O)[C@@H](NC(=O)[C@H](Cc1ccccc1)NC(=O)[C@@H](NC(=O)CNC(=O)[C@H](CCC(N)=O)NC(=O)C(C)(C)NC(=O)[C@@H](N)Cc1c[nH]cn1)[C@@H](C)O)[C@@H](C)O)C(C)C)C(C)C)C(=O)N[C@@H](CC(C)C)C(=O)NC(C)(C)C(=O)N[C@@H](CCC(=O)O)C(=O)O) [Peptide 152]
166	355	–	–	H[Aib]QGTFTSDVSK[αMeF]LDSK([AEEA-AEEA-γGlu-C18 diacid])RAQDFVQWLL[Aib]TE-OH (not fully specified) [Peptide 150]
111	178	–	–	H[Aib]QGTFTSDVSK[αMeF]LDSK([AEEA-AEEA-γGlu-C20 diacid])RAQDFVRWLL[Aib]TE-OH (N-terminus assumed; SMILES CC(C)C[C@H](NC(=O)[C@H](Cc1c[nH]c2ccccc12)NC(=O)[C@H](CCCNC(=N)N)NC(=O)[C@@H](NC(=O)[C@H](Cc1ccccc1)NC(=O)[C@H](CC(=O)O)NC(=O)[C@H](CCC(N)=O)NC(=O)[C@H](C)NC(=O)[C@H](CCCNC(=N)N)NC(=O)[C@H](CCCCNC(=O)COCCOCCNC(=O)COCCOCCNC(=O)CC[C@H](NC(=O)CCCCCCCCCCCCCCCCCCC(=O)O)C(=O)O)NC(=O)[C@H](CO)NC(=O)[C@H](CC(=O)O)NC(=O)[C@H](CC(C)C)NC(=O)[C@](C)(Cc1ccccc1)NC(=O)[C@H](CCCCN)NC(=O)[C@H](CO)NC(=O)[C@@H](NC(=O)[C@H](CC(=O)O)NC(=O)[C@H](CO)NC(=O)[C@@H](NC(=O)[C@H](Cc1ccccc1)NC(=O)[C@@H](NC(=O)CNC(=O)[C@H](CCC(N)=O)NC(=O)C(C)(C)NC(=O)[C@@H](N)Cc1c[nH]cn1)[C@@H](C)O)[C@@H](C)O)C(C)C)C(C)C)C(=O)N[C@@H](CC(C)C)C(=O)NC(C)(C)C(=O)N[C@H](C(=O)N[C@@H](CCC(=O)O)C(=O)O)[C@@H](C)O) [Peptide 151]
